Data published in the Immune Epitope Database (IEDB).

Columns and labels:
HLA-C*06:02 = experiment: IEDB peptide-MHC binding, purified MHC/direct/fluorescence; filed as Kd, often an IC50 or EC50 that approximates it; ≥ and ≤ were set here for values at or beyond the usual limits of such assays
HLA-B*15:42 = experiment: IEDB peptide-MHC binding, purified MHC/competitive/fluorescence; filed as Kd, often an IC50 or EC50 that approximates it; ≥ and ≤ were set here for values at or beyond the usual limits of such assays; details: source organism: Burkholderia mallei SAVP1
HLA-B*83:01 = experiment: as above; details: source organism: Burkholderia mallei SAVP1
HLA-B*45:06 = experiment: as above; details: source organism: Burkholderia mallei SAVP1
HLA-B*57:01 = experiment: IEDB peptide-MHC binding, purified MHC/direct/fluorescence; filed as Kd, often an IC50 or EC50 that approximates it; ≥ and ≤ were set here for values at or beyond the usual limits of such assays; details: source organism: Burkholderia mallei ATCC 23344
HLA-B*58:01 = experiment: as above
HLA-B*15:17 = experiment: as above; details: source organism: Burkholderia thailandensis
HLA-C*05:01 = experiment: as above
HLA-B*48:01 = experiment: as above; details: source organism: West Nile virus
HLA-A*02:01 = experiment: as above
HLA-A*01:01 = experiment: as above
HLA-B*40:01 = experiment: as above
HLA-A*69:01 = experiment: as above
HLA-A*31:01 = experiment: as above
HLA-B*35:01 = experiment: as above
HLA-A*24:03 [1] = experiment: as above; details: source organism: Brucella abortus 2308
HLA-A*11:01 = experiment: as above
HLA-B*27:05 = experiment: as above
HLA-A*26:01 = experiment: as above
HLA-A*03:01 = experiment: as above
HLA-B*44:02 = experiment: as above
HLA-B*08:01 = experiment: as above
HLA-B*07:02 = experiment: as above
HLA-C*12:03 = experiment: as above; details: source organism: Murid gammaherpesvirus 4
HLA-B*15:01 = experiment: as above; details: source organism: Vibrio parahaemolyticus
HLA-A*24:03 [2] = experiment: IEDB peptide-MHC binding, purified MHC/competitive/fluorescence; filed as Kd, often an IC50 or EC50 that approximates it; ≥ and ≤ were set here for values at or beyond the usual limits of such assays; details: source organism: Bacillus anthracis str. A0488
[3] = source organism: Brucella abortus 2308
[4] = source organism: Brucella melitensis
[5] = source organism: Vibrio parahaemolyticus

Sequence: IRHNKDRKV
- Kd (HLA-C*06:02; source organism: Mus musculus): 0.026 µM

Sequence: MALATGLWW
- Kd (HLA-B*15:42): ≥ 5 µM
- Kd (HLA-B*83:01): ≥ 5 µM
- Kd (HLA-B*45:06): ≥ 5 µM
- Kd (HLA-B*57:01): 0.033 µM
- Kd (HLA-B*58:01; source organism: Burkholderia thailandensis): 0.0005 µM
- Kd (HLA-B*15:17): 0.0004 µM

Sequence: MTIGMANLI
- Kd (HLA-C*05:01; source organism: Influenza A virus (A/California/04/2009(H1N1))): ≥ 20 µM

Sequence: RRSRRSLTV
- Kd (HLA-C*06:02; source organism: West Nile virus): 0.036 µM
- Kd (HLA-B*48:01): ≥ 20 µM

Sequence: TPPVDRMAV
- Kd (HLA-A*02:01; [3]): ≥ 20 µM
- Kd (HLA-A*01:01; [3]): ≥ 20 µM
- Kd (HLA-B*40:01; [3]): ≥ 20 µM
- Kd (HLA-A*69:01; [3]): ≥ 20 µM
- Kd (HLA-A*31:01; [3]): ≥ 20 µM
- Kd (HLA-B*35:01; [4]): 1.07 µM
- Kd (HLA-B*58:01; [3]): ≥ 20 µM
- Kd (HLA-A*24:03 [1]): ≥ 20 µM
- Kd (HLA-A*11:01; [3]): ≥ 20 µM
- Kd (HLA-B*27:05; [3]): ≥ 20 µM
- Kd (HLA-A*26:01; [3]): ≥ 20 µM
- Kd (HLA-A*03:01; [3]): ≥ 20 µM
- Kd (HLA-B*44:02; [3]): ≥ 20 µM
- Kd (HLA-B*08:01; [4]): 9.04 µM
- Kd (HLA-B*07:02; [4]): 0.288 µM

Sequence: VADEIAFGL
- Kd (HLA-C*05:01; source organism: Escherichia coli E22): ≤ 0.001 µM

Sequence: VSFICTTIL
- Kd (HLA-C*12:03): 0.485 µM

Sequence: YREAGIPVL
- Kd (HLA-A*02:01; [5]): ≥ 20 µM
- Kd (HLA-A*01:01; [5]): ≥ 20 µM
- Kd (HLA-B*40:01; [5]): ≥ 20 µM
- Kd (HLA-A*69:01; [5]): ≥ 20 µM
- Kd (HLA-A*31:01; [5]): ≥ 20 µM
- Kd (HLA-B*35:01; [5]): 1 µM
- Kd (HLA-B*58:01; [5]): ≥ 20 µM
- Kd (HLA-A*11:01; [5]): ≥ 20 µM
- Kd (HLA-B*27:05; [5]): 0.654 µM
- Kd (HLA-A*26:01; [5]): ≥ 20 µM
- Kd (HLA-A*03:01; [5]): ≥ 20 µM
- Kd (HLA-B*44:02; [5]): ≥ 20 µM
- Kd (HLA-B*08:01; [5]): ≥ 20 µM
- Kd (HLA-B*15:01): ≥ 20 µM
- Kd (HLA-B*07:02; [5]): ≥ 20 µM

Sequence: YYVMGGAFL
- Kd (HLA-A*24:03 [2]): 0.0003 µM
